{
  "source": "paper PMC3240630",
  "about": "“Structural Analysis of the UBA Domain of X-linked Inhibitor of Apoptosis Protein Reveals Different Surfaces for Ubiquitin-Binding and Self-Association” (PLoS ONE, 2011)",
  "binders": {"B1": {"name": "XIAP-UBA (UBA domain of X-linked inhibitor of apoptosis protein, residues 365-423) (domain or fragment, human, UniProt P98170 365-423, looked up)", "chain": "RIDDTIFQNPMVQEAIRMGFSFKDIKKIMEEKIQISGSNYKSLEVLVADLVNAQKDSMQ", "notes": "PDB 2KNA holds the longer construct 357-449; Used 15N- or 13C/15N-labelled or unlabelled; The tags are separated from XIAP-UBA by a thrombin site (LVPRG); also called XIAP UBA domain; XIAP-UBA WT; source: E. coli BL21 (DE3), purified"}},
  "key": {"[1]": {"molecular_target": "T1, linear-linked diubiquitin (UniProt P0CG48 1-76; P0CG48 1-76)", "T1 construct": "ubiquitin, mature 76-residue protein, first unit; its C-terminal Gly is joined to the N-terminal Met of the next unit; ubiquitin, mature 76-residue protein, second unit; Unlabelled; also called LL-Ub2; linear-linked Ub2", "test": "NMR titration; 15N-labelled XIAP-UBA (0.5 mM, about 0.3 mM at the last point, predominantly monomeric) titrated with unlabelled monoUb (to molar ratio 5.5), K48-Ub2 or LL-Ub2 (to 2.5); 1H-15N HSQC chemical shift perturbation; 298 K; 20 mM BisTris-HCl pH 6.7, 150 mM NaCl, 5 mM DTT", "settings": "both partners purified"}, "[2]": {"molecular_target": "T2, human ubiquitin (mono-ubiquitin) (human, UniProt P0CG48 1-76)", "T2 construct": "ubiquitin, human, the mature 76-residue protein (C-terminal diglycine Gly75-Gly76); Used unlabelled or 15N-labelled", "test": "NMR titration; 15N-labelled XIAP-UBA (0.5 mM, about 0.3 mM at the last point, predominantly monomeric) titrated with unlabelled monoUb (to molar ratio 5.5), K48-Ub2 or LL-Ub2 (to 2.5); 1H-15N HSQC chemical shift perturbation; 298 K; 20 mM BisTris-HCl pH 6.7, 150 mM NaCl, 5 mM DTT", "settings": "both partners purified"}, "[3]": {"molecular_target": "the molecule itself", "test": "15N relaxation (rotational correlation time against concentration); 15N-XIAP-UBA at 0.16-1.9 mM; T1 and T2 at 298 K; non-linear fit of the rotational correlation time; dimer to monomers"}},
  "data": [
    {"binder": "B1", "values": [
      {"measurement": "Kd", "setting": "[1]", "result": "59 ± 11", "unit": "µM"},
      {"measurement": "Kd", "setting": "[2]", "result": "249 ± 19", "unit": "µM"},
      {"measurement": "Kd", "setting": "[3]", "result": "~900", "unit": "µM"},
      {"measurement": "stoichiometry N", "setting": "[3]", "result": 2}
    ]}
  ]
}
